US20260167959A1, “APTAZYME-BASED REGULATABLE GENE EXPRESSION SYSTEMS” (REJUVENATE BIO INC, priority 2022, published 2026)
Residue numbers refer to the chain shown, from its start.

B1: RA201 (nucleic acid)
DNA: GCGCGTCCTGGATTCGCGGAAACGCGAGAATACCAGCATCGTCTTGATGCCCTTGGAAGTCTCGCGTACATCCAGCTGACGAGTCCCAAATAGGACGAAACGCGC
modifications: expressed or natural sequence
B2: RA019 (nucleic acid)
DNA: GCGCGTCCTGGATTCGCGGAAACGCGTACATCCAGCTGACGGGAATACCAGCATCGTCTTGATGCCCTTGGAAGTCCAGTCCCAAATAGGACAAAACGCGC
modifications: expressed or natural sequence
B3: RA185 (nucleic acid)
DNA: GCGCGTCCTGGATTCGCGGAAACGCGTACATCCAGCTGACGAGTCCCAAATACGGAATACCAGCATCGTCTTGATGCCCTTGGAAGTCCGGGACGAAACGCGC
modifications: expressed or natural sequence
B4: RA198 (nucleic acid)
DNA: GCGCGTCCTGAGAATACCAGCATCGTCTTGATGCCCTTGGAAGTCTGATTCGCGGAAACGCGTACATCCAGCTGACGAGTCCCAAATAGGACGAAACGCGC
modifications: expressed or natural sequence
B5: RA200 (nucleic acid)
DNA: GCGCGTCCTGGATTCGCGGAAACGCGTACATCCGAGAATACCAGCATCGTCTTGATGCCCTTGGAAGTCTCGCAGCTGACGAGTCCCAAATAGGACGAAACGCGC
modifications: expressed or natural sequence
B6: RA194 (nucleic acid)
DNA: GCGCGTCCTGGATTCGCGGAAACGCGTACATCCAGCTGACGAGAATACCAGCATCGTCTTGATGCCCTTGGAAGTCTCGAGTCCCAAATAGGACGAAACGCGC
modifications: expressed or natural sequence
B7: RA203 (nucleic acid)
DNA: GCGCGTCCTGGATTCGCGGAAACGCGTACATCCAGCTGACGAGTCCCAAATAGGAAGAATACCAGCATCGTCTTGATGCCCTTGGAAGTCTCGAAACGCGC
modifications: expressed or natural sequence
B8: RA018 (nucleic acid)
DNA: GCGCGTCCTGGATTCGCGGAAACGCGTACATCCAGCTGACGAGTCCCAAAGTGATACCAGCATCGTCTTGATGCCCTTGGCAGCACTATAGGACGAAACGCGC
modifications: expressed or natural sequence
B9: RA207 (nucleic acid)
DNA: B8 DNA with A50G, G51A, T52G, G53A, C81A, C84T, A85C, C86T, T87C
modifications: expressed or natural sequence
B10: RA202 (nucleic acid)
DNA: GCGCGTCCTGGATAGTGATACCAGCATCGTCTTGATGCCCTTGGCAGCACTTCGCGGAAACGCGTACATCCAGCTGACGAGTCCCAAATAGGACGAAACGCGC
modifications: expressed or natural sequence
B11: RA192 (nucleic acid)
DNA: GCGCGTCCTGGATTCGCGGAAACGCGTACATCCAGCTGACGAGTCCCAAATGGAATACCAGCATCGTCTTGATGCCCTTGGAAGTCCAGGACGAAACGCGC
modifications: expressed or natural sequence
B12: RA204 (nucleic acid)
DNA: GCGCGTCCCGGAATACCAGCATCGTCTTGATGCCCTTGGAAGTCCGTGGATTCGCGGAAACGCGTACATCCAGCTGACGAGTCCCAAATAGGACGAAACGCGC
modifications: expressed or natural sequence
B13: RA183 (nucleic acid)
DNA: GCGCGTCCTGGATTCGCGGAAACGCGTACATCCAGCTGAGAATACCAGCATCGTCTTGATGCCCTTGGAAGTCTACGAGTCCCAAATAGGACGAAACGCGC
modifications: expressed or natural sequence
B14: RA188 (nucleic acid)
DNA: GCGCGTCCTGGATTCGCGGAAACGCGTACATCCAGCTGACGAGTCCCAAATAGGACGAAGAGAATACCAGCATCGTCTTGATGCCCTTGGAAGTCTCACGCGC
modifications: expressed or natural sequence
B15: RA187 (nucleic acid)
DNA: GCGCGTCCTGGATTCGCGGAAACGCGTACATCCAGCTGACGAGTCCCAAATAGGACGAAACGCGCGAGAATACCAGCATCGTCTTGATGCCCTTGGAAGTCTC
modifications: expressed or natural sequence
B16: RA197 (nucleic acid)
DNA: GCGCGTCCTGGATTCGCGGAAACGCGTACATCCAGCTGACGAGTCCCAAATAGGACAAAACGCGC
modifications: expressed or natural sequence
B17: RA195 (nucleic acid)
DNA: GCGCGTCGAGAATACCAGCATCGTCTTGATGCCCTTGGAAGTCTCGCCTGGATTCGCGGAAACGCGTACATCCAGCTGACGAGTCCCAAATAGGACGAAACGCGC
modifications: expressed or natural sequence
B18: RA191 (nucleic acid)
DNA: GCGCGTCCTGGATTCGCGGAACGAGAATACCAGCATCGTCTTGATGCCCTTGGAAGTCTCGACGCGTACATCCAGCTGACGAGTCCCAAATAGGACGAAACGCGC
modifications: expressed or natural sequence
B19: RA189 (nucleic acid)
DNA: GCGCGTCCTGGATTCGGAATACCAGCATCGTCTTGATGCCCTTGGAAGTCCGCGGAAACGCGTACATCCAGCTGACGAGTCCCAAATAGGACGAAACGCGC
modifications: expressed or natural sequence
B20: RA190 (nucleic acid)
DNA: GCGCGTCCTGGATTCGCGAGTGATACCAGCATCGTCTTGATGCCCTTGGCAGCACTGAAACGCGTACATCCAGCTGACGAGTCCCAAATAGGACGAAACGCGC
modifications: expressed or natural sequence
B21: RA184 (nucleic acid)
DNA: GAGAATACCAGCATCGTCTTGATGCCCTTGGAAGTCTCGCGTCCTGGATTCGCGGAAACGCGTACATCCAGCTGACGAGTCCCAAATAGGACGAAACGCGC
modifications: expressed or natural sequence
B22: RA208 (nucleic acid)
DNA: GCGCGTCCTGGATTCGCGGAAACGCGTACATCCAGCTGACGAGTCCCAAACCGGAATACCAGCATCGTCTTGATGCCCTTGGAAGTCCGGTAGGACGAAACGCGC
modifications: expressed or natural sequence
B23: RA020 (nucleic acid)
DNA: GCGCGTCCTGGATTCGCGGAAACGCGTACATCGGAATACCAGCATCGTCTTGATGCCCTTGGAAGTCCGCCAGCTGACGAGTCCCAAATAGGACGAAACGCGC
modifications: expressed or natural sequence
B24: RA206 (nucleic acid)
DNA: GCGCGTCCTGGATTCGCCGGAATACCAGCATCGTCTTGATGCCCTTGGAAGTCCGGCGGAAACGCGTACATCCAGCTGACGAGTCCCAAATAGGACGAAACGCGC
modifications: expressed or natural sequence
B25: RA186 (nucleic acid)
DNA: GCGCGTCCTGGATTCGCGCGAGAATACCAGCATCGTCTTGATGCCCTTGGAAGTCTCGGAAACGCGTACATCCAGCTGACGAGTCCCAAATAGGACGAAACGCGC
modifications: expressed or natural sequence
B26: RA205 (nucleic acid)
DNA: GCGCGTCCTGGATTCGCGGAAACGCGTACATCCAGCTGACGAGTCCCAAATAGGACGAAACGCGGAATACCAGCATCGTCTTGATGCCCTTGGAAGTCCGC
modifications: expressed or natural sequence
B27: RA199 (nucleic acid)
DNA: GCGCGTCCTGGATTCGCGGAAACAGTGATACCAGCATCGTCTTGATGCCCTTGGCAGCACTGCGTACATCCAGCTGACGAGTCCCAAATAGGACGAAACGCGC
modifications: expressed or natural sequence
B28: RA193 (nucleic acid)
DNA: CCGGAATACCAGCATCGTCTTGATGCCCTTGGAAGTCCGGGCGCGTCCTGGATTCGCGGAAACGCGTACATCCAGCTGACGAGTCCCAAATAGGACGAAACGCGC
modifications: expressed or natural sequence
B29: RA196 (nucleic acid)
DNA: GCGCGTCCTGGATTCGCGGAAACGCGTACATCCAGCTGACGAGTCCCAAATGAGAATACCAGCATCGTCTTGATGCCCTTGGAAGTCTCAGGACGAAACGCGC
modifications: expressed or natural sequence

The molecules below were run on Renilla luciferase RNA (assay: Barcoded aptazyme variant library screen: un-cleaved Renilla luciferase RNA by barcode read counts, HEK293-T cells). Conditions: un-cleaved Renilla luciferase RNA, HEK293-T cells cultured with 1 mM theophylline (ON) over without theophylline (OFF); barcode read counts, triplicate.
Format: cell-based
Method in brief: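 Aptazyme variants (seven theophylline aptamers inserted after each T3H48 ribozyme nucleotide, 9-nt barcoded) cloned into the 3′ UTR of Renilla luciferase in psiCHECK-2; cells cultured ± theophylline, in triplicate. RNA and DNA barcodes amplified and sequenced; normalized read counts gave un-cleaved RNA fraction and ON/OFF fold-change.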

| Molecule | Fold change in RNA expression between the ON state and the OFF state |
| --- | --- |
| B1 | 1.2 fold |
| B2 | 2.7 fold |
| B3 | 1.3 fold |
| B4 | 1.2 fold |
| B5 | 1.2 fold |
| B6 | 1.2 fold |
| B7 | 1.2 fold |
| B8 | 2.8 fold |
| B9 | 1.2 fold |
| B10 | 1.2 fold |
| B11 | 1.2 fold |
| B12 | 1.2 fold |
| B13 | 1.3 fold |
| B14 | 1.2 fold |
| B15 | 1.3 fold |
| B16 | 1.2 fold |
| B17 | 1.2 fold |
| B18 | 1.2 fold |
| B19 | 1.2 fold |
| B20 | 1.2 fold |
| B21 | 1.3 fold |
| B22 | 1.2 fold |
| B23 | 2.7 fold |
| B24 | 1.2 fold |
| B25 | 1.3 fold |
| B26 | 1.2 fold |
| B27 | 1.2 fold |
| B28 | 1.2 fold |
| B29 | 1.2 fold |
